Assays:
Experiment in all cases: cell-based or functional assay
[1] = biological target: hemagglutinin of A/chicken/Singapore/Sg02 H3N2 (influenza A virus A/chicken/Singapore/Sg02 (H3N2))
[2] = biological target: hemagglutinin of A/Indonesia/CDC669/2006 (H5N1, clade 2.1) (influenza A virus A/Indonesia/CDC669/2006 (H5N1))
[3] = biological target: hemagglutinin of A/Indonesia/TLL014/2006 (H5N1, clade 2.1) (influenza A virus A/Indonesia/TLL014/2006 (H5N1))
[4] = biological target: hemagglutinin of A/Common iora/Indonesia/F89/H7N1 (influenza A virus A/Common iora/Indonesia/F89 (H7N1))
[5] = biological target: hemagglutinin of A/Indonesia/TLL013/2006 (H5N1, clade 2.1) (influenza A virus A/Indonesia/TLL013/2006 (H5N1))

B1: murine monoclonal antibody 4C2 (antibody, V domains shown)
VH: QESGAELVRPGASVKLSCKDSGYTFTTYWMNWVKQRPEQGLEWIGRIDPYDSETHYNQKFKDKAILTVDKSSNTAYMQLSSLTSEDSAVYYCVRGGSTVAYFGVWGQG
VL: MTQSPSSMSVSLGDTVSITCHASQDISGHIGWLQQKPGKSFKGLIYHGTNLEDGVPSRFSGSGSGADFSLTISSLESEDFADYYCVQYVQFPWTFGGGTK
HI titer (titer (mAb at 1 mg/ml)) [1]: < 4
Microneutralization titers against H5N1 strains [1]: < 10
HI titer (titer (mAb at 1 mg/ml)) [2]: 512
Microneutralization titers against H5N1 strains [2]: 320
HI titer (titer (mAb at 1 mg/ml)) [3]: 512
Microneutralization titers against H5N1 strains [3]: 320
HI titer (titer (mAb at 1 mg/ml)) [4]: < 4
Microneutralization titers against H5N1 strains [4]: < 10
HI titer (titer (mAb at 1 mg/ml)) [5]: 512
Microneutralization titers against H5N1 strains [5]: 640

— patent publication US20130202608A1
